Measurements reported in US20230416760A1 (CURATORS OF THE UNIVERSITY OF MISSOURI, published 2023).

T1: heteromeric acetyl-coenzyme A carboxylase (hetACCase) of Arabidopsis thaliana (Arabidopsis thaliana)
T1 chain 1: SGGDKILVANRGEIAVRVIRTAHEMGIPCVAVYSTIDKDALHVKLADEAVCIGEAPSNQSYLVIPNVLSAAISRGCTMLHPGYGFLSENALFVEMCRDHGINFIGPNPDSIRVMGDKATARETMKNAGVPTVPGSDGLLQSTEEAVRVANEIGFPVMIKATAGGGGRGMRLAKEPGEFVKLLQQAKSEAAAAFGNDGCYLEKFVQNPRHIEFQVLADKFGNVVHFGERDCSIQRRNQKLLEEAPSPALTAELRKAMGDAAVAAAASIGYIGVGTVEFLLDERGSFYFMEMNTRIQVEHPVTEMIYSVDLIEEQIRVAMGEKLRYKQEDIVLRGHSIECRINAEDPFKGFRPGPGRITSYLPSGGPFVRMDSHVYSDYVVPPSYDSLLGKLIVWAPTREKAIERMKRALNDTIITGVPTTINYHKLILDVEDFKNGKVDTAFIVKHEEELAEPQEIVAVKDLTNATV
T1 chain 2: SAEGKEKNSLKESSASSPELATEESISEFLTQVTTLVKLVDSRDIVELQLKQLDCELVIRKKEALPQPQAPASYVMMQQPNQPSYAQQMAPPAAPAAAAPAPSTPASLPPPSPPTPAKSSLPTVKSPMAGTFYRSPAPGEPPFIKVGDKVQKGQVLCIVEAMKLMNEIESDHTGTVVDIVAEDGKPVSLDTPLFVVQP
T1 chain 3: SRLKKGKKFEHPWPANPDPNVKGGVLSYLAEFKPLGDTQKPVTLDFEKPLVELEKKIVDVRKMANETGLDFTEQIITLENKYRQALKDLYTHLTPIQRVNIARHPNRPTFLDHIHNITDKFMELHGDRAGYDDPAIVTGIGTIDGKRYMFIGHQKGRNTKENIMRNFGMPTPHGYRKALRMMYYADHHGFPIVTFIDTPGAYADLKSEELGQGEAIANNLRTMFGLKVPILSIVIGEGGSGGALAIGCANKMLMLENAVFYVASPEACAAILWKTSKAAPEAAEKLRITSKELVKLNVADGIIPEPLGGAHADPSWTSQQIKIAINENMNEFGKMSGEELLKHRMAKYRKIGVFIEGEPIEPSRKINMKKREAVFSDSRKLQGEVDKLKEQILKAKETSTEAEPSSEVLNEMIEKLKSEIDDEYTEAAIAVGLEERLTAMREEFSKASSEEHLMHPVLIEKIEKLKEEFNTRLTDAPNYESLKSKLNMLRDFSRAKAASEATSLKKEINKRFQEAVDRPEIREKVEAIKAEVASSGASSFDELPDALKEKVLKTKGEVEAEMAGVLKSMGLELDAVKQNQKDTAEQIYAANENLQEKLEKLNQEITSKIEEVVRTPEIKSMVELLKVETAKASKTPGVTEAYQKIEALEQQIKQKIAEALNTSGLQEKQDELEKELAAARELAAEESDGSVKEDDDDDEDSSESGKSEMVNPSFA
T1 chain 4: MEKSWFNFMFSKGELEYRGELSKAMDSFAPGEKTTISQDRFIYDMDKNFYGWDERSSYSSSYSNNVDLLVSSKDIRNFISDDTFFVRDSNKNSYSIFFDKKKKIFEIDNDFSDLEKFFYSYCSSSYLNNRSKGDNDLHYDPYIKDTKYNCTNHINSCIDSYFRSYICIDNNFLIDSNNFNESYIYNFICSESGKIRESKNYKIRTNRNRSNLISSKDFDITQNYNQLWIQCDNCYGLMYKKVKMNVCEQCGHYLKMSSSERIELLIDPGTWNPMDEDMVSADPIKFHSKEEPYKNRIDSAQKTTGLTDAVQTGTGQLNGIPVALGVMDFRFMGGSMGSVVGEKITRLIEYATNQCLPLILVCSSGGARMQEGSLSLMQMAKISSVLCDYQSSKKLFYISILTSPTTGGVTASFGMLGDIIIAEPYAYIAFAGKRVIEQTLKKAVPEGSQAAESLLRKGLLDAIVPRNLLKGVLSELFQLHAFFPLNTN

B1: BADC1 (AT3G56130), biotin/lipoyl attachment domain-containing protein, Arabidopsis thaliana (other)
chain: AKAAKSSTTTISDGSSDASVSDGKKTVRRITFPKEVEALVHEMCDETEVAVLQLKVGDFEMNLKRKIGAATNPIPVADISPTVAPPIPSEPMNKSASSAPSPSQAKPSSEKVSPFKNTSYGKPAKLAALEASGSTNYVLVTSPAVGKFQRSRTVKGKKQSPSCKEGDAIKEGQVIGYLHQLGTELPVTSDVAGEVLKLLSDDGDSVGYGDPLVAVLPSFHDINIQ
notes: Recombinant and yeast two-hybrid constructs were made without the transit peptide predicted by TargetP; also called AtBADC1
B2: BADC2 (AT1G52670), Single hybrid motif protein, Arabidopsis thaliana (other)
chain: TTLRSVKAIQLSTVPPAETEAIADVKDSDETKSTVVNTHLMPKSSEVEALISEITDSSSIAEFELKLGGFRLYVARKLTDESSPPPQQIQPVVAASATPEGVHTNGSATSSSLAITKTSSSSADRPQTLANKAADQGLVILQSPTVGYFRRSKTIKGKRTPTICKEKDIVKEGQVLCYIEQLGGQIPVESDVSGEIVKILREDGEPVGYNDALITVLPSFPGIKKLQ
notes: His-tagged or untagged from E. coli, bait/prey fusion in yeast two-hybrid, native protein in co-IPs; also called AtBADC2

Legend:
[1] = test system: all three BADCs (recombinant BADC1, BADC2, BADC3)
[2] = target: T1, heteromeric acetyl-coenzyme A …; test: inhibition of ACCase activity in 20-day-old A. thaliana leaf extracts by increasing concentrations of recombinant BADC1
Experimental: ACCase activity was monitored in vitro in 20-day-old A. thaliana leaf extracts with increasing concentrations of recombinant BADC1. Specific activity was determined for each experiment and 0 μM controls were normalized to 1. Specific activity values for controls ranged from 0.84-2.00 nmol/min/mg. Each data point represented the average of four biological replicates, with each biological replicate comprised of four light-adapted leaves.

[3] = target: α-carboxyltransferase (α-CT) subunit of hetACCase, AT2G38040, Arabidopsis thaliana (Arabidopsis thaliana) (UniProt Q9LD43); test: co-IP from A. thaliana chloroplast lysate with anti-α-CT antibody, LC-MS/MS, n=7
[4] = target: BCCP2 (AT5G15530), biotin carboxyl carrier protein isoform 2, Arabidopsis thaliana (Arabidopsis thaliana) (UniProt Q9LLC1); test: co-IP from A. thaliana chloroplast lysate with anti-BCCP2 antibody, LC-MS/MS, n=7
[5] = target: the molecule itself; test: intact mass analysis and non-reducing SDS-PAGE of purified recombinant protein

| Molecule | hetACCase activity in ten-day-old A. thaliana silique extracts (H14CO3 incorporation), 10 µM recombinant protein [1] | Ki [2] [µM] | replicates (of seven) of the co-IP in which the protein was present [3] [replicates] | replicates (of seven) of the co-IP in which the protein was present [4] [replicates] | binding result [5] |
| --- | --- | --- | --- | --- | --- |
| heteromeric acetyl-coenzyme A carboxylase (hetACCase) of Arabidopsis thaliana | all three BADCs inhibited hetACCase activity by 25 to 37% |  |  |  |  |
| B1 |  | ~4.3 | 1 | 7 |  |
| B2 |  |  | 2 | 6 | no binding |
